Values quoted from earlier work as cited in PMC4941815.

Experiments:
[1] = molecular target: SRPK1 (Homo sapiens) (UniProt Q96SB4); assay: competition
[2] = molecular target: CLK1 (Homo sapiens) (UniProt P49759); assay: competition
Sequence of CLK1 (Homo sapiens) (P49759 whole entry): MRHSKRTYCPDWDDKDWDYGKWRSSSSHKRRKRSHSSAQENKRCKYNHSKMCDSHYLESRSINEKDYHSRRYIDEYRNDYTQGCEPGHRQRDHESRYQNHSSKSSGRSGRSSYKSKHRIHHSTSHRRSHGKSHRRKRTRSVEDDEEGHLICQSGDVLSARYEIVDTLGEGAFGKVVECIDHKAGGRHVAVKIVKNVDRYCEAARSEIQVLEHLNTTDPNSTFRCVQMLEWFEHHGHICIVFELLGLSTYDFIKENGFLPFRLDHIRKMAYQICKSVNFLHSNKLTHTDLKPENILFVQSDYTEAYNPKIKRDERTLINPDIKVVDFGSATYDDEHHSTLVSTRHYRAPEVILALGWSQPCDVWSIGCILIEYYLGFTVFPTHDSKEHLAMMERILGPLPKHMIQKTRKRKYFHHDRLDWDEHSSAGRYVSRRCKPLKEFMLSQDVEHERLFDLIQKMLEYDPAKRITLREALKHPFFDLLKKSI

Sequence of SRSF1 (Q07955 2-248): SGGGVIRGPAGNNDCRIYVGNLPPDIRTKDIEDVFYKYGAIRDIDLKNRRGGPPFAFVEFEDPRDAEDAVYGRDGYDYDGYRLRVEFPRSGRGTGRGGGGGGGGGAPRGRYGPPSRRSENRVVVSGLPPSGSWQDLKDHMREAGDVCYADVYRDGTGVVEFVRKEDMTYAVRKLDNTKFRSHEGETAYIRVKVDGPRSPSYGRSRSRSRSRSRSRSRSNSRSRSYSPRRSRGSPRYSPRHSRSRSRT
Sequence of SRPK1 (Homo sapiens) (Q96SB4 whole entry): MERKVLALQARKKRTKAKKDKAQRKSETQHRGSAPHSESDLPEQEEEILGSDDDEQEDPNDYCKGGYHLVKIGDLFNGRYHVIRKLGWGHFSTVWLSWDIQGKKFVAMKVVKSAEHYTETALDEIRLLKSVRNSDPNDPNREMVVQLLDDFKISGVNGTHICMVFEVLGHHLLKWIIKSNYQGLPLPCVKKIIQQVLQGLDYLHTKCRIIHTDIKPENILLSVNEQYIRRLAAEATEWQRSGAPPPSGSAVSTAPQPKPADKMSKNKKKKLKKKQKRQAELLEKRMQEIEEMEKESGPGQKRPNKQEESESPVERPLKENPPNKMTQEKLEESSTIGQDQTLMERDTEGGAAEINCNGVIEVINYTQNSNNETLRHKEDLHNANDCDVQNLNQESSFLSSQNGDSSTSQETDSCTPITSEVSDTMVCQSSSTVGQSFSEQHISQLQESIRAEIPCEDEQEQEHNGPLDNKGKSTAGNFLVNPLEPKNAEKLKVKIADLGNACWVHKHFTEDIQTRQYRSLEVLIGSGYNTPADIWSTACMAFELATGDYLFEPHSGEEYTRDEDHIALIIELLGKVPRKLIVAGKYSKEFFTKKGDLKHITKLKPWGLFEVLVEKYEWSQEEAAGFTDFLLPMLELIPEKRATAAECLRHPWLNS

SRSF1 (from UniProt Q07955)
Kd [1]: 0.06 µM
Kd [2]: 0.006 µM
